Laboratory results as given in the supplement of paper PMC9170038.

Test system: MS2 coat protein
Assay: apparent KD of MS2 coat protein; higher = weaker reporter binding
Conditions: Eterna round: R107
Protocol: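 RNA-MaP round R107: designed RNA switches with theophylline, tryptophan, arginine or FMN aptamers are transcribed on-chip within common flanks. They are titrated with SNAP-549-labelled MS2 coat protein in RNA-MaP buffer (100 mM Tris pH 7.5, 80 mM KCl, 4 mM MgCl2), without ligand or with the indicated ligand. Median apparent KD per design.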

[1] = input ligand: theophylline 20 uM
[2] = input ligand: theophylline 2 mM
[3] = input ligand: tryptophan 2.4 mM

Sequence | apparent KD of MS2 coat protein (input ligand: arginine 13.2 mM) | apparent KD of MS2 coat protein (input ligand: none) | apparent KD of MS2 coat protein [1] | apparent KD of MS2 coat protein [2] | apparent KD of MS2 coat protein [3]
GCCGGACUUUCGGCCGCCACUGAGAGAGUCGUGUGAACAUGAGGAUCACCCAUGUAAUAUAUAUACAGGACCGGGAGGGUUGGGC [4.R] | 10.5 nM | 13.7 nM | 15.1 nM | 14.4 nM | 12.4 nM
AGGAAACAACAUGAGGAUCACCCAUGUGAUACCAGUCAAAUAAAAGACCCUUGGCAGCACACAUGACAUGAGGAUCACCCAUGUA [AstrosSSTheA#1] | 24.8 nM |  | 41.5 nM |  | 59.8 nM
UAUCGACACUGAAGGAGCGAGAUGACAAACAUGAGGAUCACCCAUGUUAUGGGUUGUUAAUCUCAGGUAGGUCGCAGUGGUCGCA [Same State Arginine B GF 18] | 67.8 nM | 93.3 nM | 130 nM | 108 nM | 85.7 nM
UAACAUGAGGAUCACCCAUGUUUGAAGGAACGAGGACCGGUACGGCCGCCACUCGACGAGUGGAUGAGAAGUGGGCUUGUGUGCU [Same State Trp A GF9] | 13.7 nM | 15.5 nM | 16.3 nM | 13 nM | 16.5 nM
ACACAUGAGGAUCACCCAUGUGCCCAUGAAGGAGCGUGGGAAACCACAGGUAGGUCGCAUGACAUGAGGAUCACCCAUGUUUAUU [Astarte] | 29 nM | 41.9 nM | 44.9 nM | 39.7 nM | 41.9 nM
GAAACGUAGGUGGAGCGGUGAAAUGGCGAUACCAGCGUGGAAACAUGCCCUUGGCAGCGUUAGAACAUGAGGAUCACCCAUGUUU [#22 Exclusion-TheophyllineA] | 12.9 nM |  | 15.4 nM |  | 14.9 nM
GUUGGUUUGGGAAGGAGCGGGUAUGUUGUCUACUUGAUCCUAACAUGAGGAUCACCCAUGUCCCAGGUAGGUCGCCCAGGCUUUG [12.aD] | 35.7 nM | 139 nM | 230 nM | 103 nM | 98.4 nM
AGUAGACACGCGGCCGCCACUUGAGGAUCACCCAGGUGGUGUGUACUUGAAACAAGUGCACAAUCAAGGACCGGGCGUGUCUACA [Omei Tryp B SS D v1] | 12.6 nM | 13.5 nM | 17.4 nM | 15.1 nM | 83.7 nM
UGUCCUCAUGCGGCCGCCACUGUCGGCCGCCACUAAACAUGAGGAUCACCCAUGUAGGACCGGGACAGGACCGGGCAUGGGUGCU [TryBS - #DoubleAptamer] | 132 nM | 102 nM | 232 nM | 244 nM | 319 nM
ACAUGAGGAUCACCCAUGUGCCGUCUUGAUACCAGACCCGAAGUAGUCCCUUGGCAGCAACUACGUGACGGUCGCGCAUGUGUAG [kaomullin] | 16.3 nM |  | 30.3 nM |  | 17.7 nM
GGUUGGUAUAUAUAUAUAUUGAUUACUGAAGGAGCGGGAAAUAACCCAGGUAGGUCGCAGAGAUCCACAUGAGGAUCACCCAUGU [!0.G] | 24.3 nM | 45.1 nM | 60.3 nM | 56.8 nM | 39.1 nM
AUAAGGUAUCUGCUAUCCUCAUGAGCAGAUACCAGCUAGGAAACUAGCCCUUGGCAGCUGCAACAUGAGGAUCACCCAUGUAAUA [(T)'-(M)'-(T1)-(T2)-(M1)-(M2)_Design1] | 64.4 nM |  | 118 nM |  | 256 nM
UGCAUGAGGAUCGCCCGUGUCGAGCCGGUGCGAGGACCGGUACGGCCGCCACUCGAGACAUGAGGAUCACCCAUGUUGUGCGUGA [Exclusion Tryptophan A GF24] | 27.9 nM |  | 79.5 nM | 56.4 nM | 
UGUCAUGGAAACAUGACUGGUUCUACCGGUCGAGGACCGGUACGGCCGCCACUCGAUUGGUGGCACAUGAGGAUCACCCAUGUUA [SS Tryp A #14] | 26.2 nM |  | 51.9 nM | 33.9 nM | 
UAGUACAUGAGGAUCACCCAUGUCGGAGGUCGAGGACCGGUACGGCCGCCACUCGGUCAUGCCCUACGAUACGACAGGAAUCUGU [theeternabot_sameState_MS2_Trp_A_28] | 21.8 nM |  | 36.5 nM | 28.9 nM | 
ACAUGAGGAUCACCCAUGUACAUCACCCGACGAGGACCGGUACGGCCGCCACUCGGGUAUAUAUAUACAUCGGGUGAUUUUGCAU [#21 Tryptophan A Same State] | 27.4 nM | 20.9 nM | 108 nM | 79.5 nM | 26.5 nM
CUGCCAUGCAGAGAUACCAGUGCGCUCAGCACAUGAGGAUCACCCAUGUUGGCUGCCGAUCACCCUUGGCAGCUCUGCAUGGCAG [#04 Same State - Theophylline B] | 10.9 nM |  | 12.5 nM |  | 8.66 nM
GAACAUAAGGAUACUAUAAUAAGUACAGAAGGAGCGAGCGGAAGCUCAGGUAGGUCGCUGGGUAACAUGAGGAUCACCCAUGUUG [SSArg A #14 Road to perfection1] | 23.1 nM | 21.4 nM | 37 nM | 37 nM | 15.6 nM
AACAGUAUUAUAGAUACCAGCAGGUCAUAAGACAUGAGGAUCACCCAUGUGAAUGAGGUAUGCCCUUGGCAGCUAUGAGGUCCUC [theeternabot_sameState_MS2_Theo_B_18] | 113 nM |  | 185 nM |  | 126 nM
AGCCCUGUACUAGAUACCAGCUACAUGAGGAUCACCCAUGUACGAUAAGACUGUCCAUGUAGCCCUUGGCAGCUGCUCGCAUGUA [#13 Exclusion-TheophyllineB] | 24.1 nM |  | 41.3 nM |  | 29.2 nM
GGACUAACCAGAAGGAGCGACACGCAGAAACUGCUAAUUCCUCCGCACGAGGAUCACCCGUGUCAGGUAGGUCGCUGGUUAGUCG [ArgBX 28] | 20.3 nM | 20.5 nM | 28.5 nM | 24.3 nM | 23.3 nM
AGCGACAUGCAUGAUACCAGCUACAUGAGGAUCACCCAUGUACGUCAGUAAUGACUGUGUAGCCCUUGGCAGCAUAAAGCAUGUC [Exclusion - Theophylline B (Freestyle 17)] | 22.8 nM |  | 44.5 nM |  | 26.5 nM
AAGGGAGAAUCAGAUACCAGAGUAAGAUGGCAUGAUAAUUACAUGAGGAUCACCCAUGUACUCCCUUGGCAGCUGACAAUAUAUU [Exclusion Theophylline B GF 18] | 12.5 nM |  | 13.2 nM |  | 10.3 nM
AUAUGAUCAUGUGAUACCAGAAAUGGUAUUCCUCGCUGGAUUACAUGAGGAUCACCCAUGUUCCCUUGGCAGCAUAUGAUCAUAU [#01 Exclusion-TheophyllineB] | 21.3 nM |  | 36.3 nM |  | 20.9 nM
UCGGGCAGAGCGGCCGCCACUGUUUGGCGUGCGGAUGAAGGAACAUGAGGAUCACCCAUGUUGAUUAGGACCGGGCUUGCGGAGA [kklmullin] | 12.6 nM | 17.1 nM | 27 nM | 17.4 nM | 16.7 nM
GGAAGCAGGACUGAUACCAGUCCAGCGAAUCAUACGACGCAACAUGAGGAUCACCCAUGUGACCCUUGGCAGCAGACUGCUACCG [Same State Theophylline B GF 27] | 33.1 nM |  | 37.2 nM |  | 32.2 nM
